Data taken from patent EP4759829A1 (The University of Tokyo, dated 2025).
Values joined by “and” are separate entries in the source; they are usually repeats but may differ in a detail not shown here. Identical values can stand only once.

Key:
[1] = biological target: T1, human HVEM on cells (HEK293T cells expressing HVEM; Mesenchymal subtype GBM cells) (human, UniProt Q92956 39-283); test: cell-based or functional assay
T1 sequence (looked up): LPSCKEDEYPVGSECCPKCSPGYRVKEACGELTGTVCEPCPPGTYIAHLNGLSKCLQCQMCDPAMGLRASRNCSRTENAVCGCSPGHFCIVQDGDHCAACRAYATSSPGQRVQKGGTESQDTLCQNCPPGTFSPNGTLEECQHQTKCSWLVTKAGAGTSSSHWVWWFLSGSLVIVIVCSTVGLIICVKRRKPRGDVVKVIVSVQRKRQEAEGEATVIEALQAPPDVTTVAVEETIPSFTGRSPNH

[2] = biological target: T2, human HVEM extracellular domain recombinant protein (Sino Biological Japan Inc. 10334-H08H) (human, UniProt Q92956 39-202); test: SPR (BIAcore T200), antibody captured by anti-human IgG on CM5 chip, HVEM extracellular domain as analyte
T2 construct: extracellular domain; Bought protein
T2 sequence (looked up): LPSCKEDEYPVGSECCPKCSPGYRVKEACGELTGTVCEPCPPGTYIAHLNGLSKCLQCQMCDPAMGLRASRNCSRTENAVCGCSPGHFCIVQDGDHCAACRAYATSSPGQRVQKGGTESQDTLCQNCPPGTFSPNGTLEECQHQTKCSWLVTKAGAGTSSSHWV

[3] = biological target: T1, human HVEM on cells (HEK293T cells …); test: cell ELISA on fixed HEK293T cells expressing HVEM, anti-His-HRP detection
[4] = biological target: T2, human HVEM extracellular domain …; test: SPR (BIAcore T200), biotinylated VHH-3-Avitag on SA chip, HVEM extracellular domain as analyte

B1: humanized anti-human HVEM antibody (HVR80) conjugated with monomethyl auristatin E (MMAE) (other)
chain: EVQLVESGGGLVQPGGSLRLSCAASGSIGSIHRWDWYRQAPGKQREWVATLNSEGGPTYADSVEGRFTISRDNSKNTLYLQMNSLRPEDTAVYRCAARTVPFEYWGQGTLVTVSSGPPCPPCPAPEFLGGPSVFLFPPKPKDTLMISRTPEVTCVVVDVSQEDPEVQFNWYVDGVEVHNAKTKPREEQFNSTYRVVSVLTVLHQDWLNGKEYKCKVSNKGLPSSIEKTISKAKGQPREPQVYTLPPSQEEMTKNQVSLTCLVKGFYPSDIAVEWESNGQPENNYKTTPPVLDSDGSFFLYSRLTVDKSRWQEGNVFSCSVMHEALHNHYTQKSLSLSLGK
modifications: conjugated with monomethyl auristatin E (MMAE) using Glyclick ADC MMAE (Genovis AB); site not stated
[1]
  IC50 of cell viability of HEK293T-HVEM cells, 3 days: 70 ng/ml and 0.9 nM

B2: humanized anti-human HVEM antibody (HVR80) conjugated with PNU (other)
chain: B1 chain
modifications: conjugated with PNU using Glyclick ADC PNU (Genovis AB); site not stated
[1]
  IC50 of cell viability of HEK293T-HVEM cells, 3 days: 30 ng/ml and 0.4 nM

B3: humanized anti-human HVEM antibody (HVR80) (Fc fusion)
chain: B1 chain
notes: Printed molecular weight about 77,000
[2]
  Kd: 59 nM

B4: alpaca anti-human HVEM antibody (VHH-3), 6×His-tagged (VHH)
VHH: QVQLVESGGGSVQPGGSLRLSCAASGSIGSIHRWDWYRLCPGKQREWVATLNSEGGPTYADSVEGRFTISRDNAKNMVYLQMNSLKPEDTAVYRCSARTVPFEYWGRGTQVTVSS
notes: also called 6×His-tagged VHH-3 antibody; not shown: 6×His tag
[3]
  EC50: 1.94 nM

B5: alpaca anti-human HVEM antibody (VHH-3) tagged C-terminally with biotinylated Avitag (VHH)
VHH: B4 VHH
modifications: biotinylated Avitag at the C-terminus
notes: not shown: C-terminal Avitag (biotinylated)
[4]
  Kd: 19 nM
